From patent US20240034786A1 (WUXI BIOLOGICS IRELAND, published 2024)

What was measured:
[1] = molecular target: T1, Human P-cadherin on cells (human, UniProt P22223 108-829); assay: FACS on HCT-116 cells, antibody kept in human serum at 37 C, Day 1
T1 construct: whole, on cells; Endogenous P-cadherin on tumour cell lines; also called hPro1
Protocol: The antibody stability in human serum was tested by FACS. Briefly, human serum was freshly isolated by centrifuging the fresh blood twice at 4000 rpm for 10 minutes. […] As a control, antibodies serum mix was frozen immediately without 37° C. incubation. For the FACS analysis, the samples from different time points were free-thawed simultaneously at 4° C. […] The cells were washed twice with 1% BSA/1×PBS (Ca+/Mg+). Alexa647 conjugated Goat anti-human IgG Fc (Jackson, #109-605-098) 1:500 diluted in 1% BSA/1×PBS (Ca+/Mg+) were added to the cells and incubated at 4° C. for 30 minutes. Cells were washed twice in the same buffer and the mean fluorescence (MFI) of stained cells was measured using a FACS Canto II cytometer (BD Biosciences) and analyzed by FlowJo. Wells containing no antibody or secondary antibody only were used to establish background fluorescence. Four-parameter non-linear regression analysis was used to obtain EC50 values for cell binding using GraphPad Prism6 software.

[2] = molecular target: T1, Human P-cadherin on cells; assay: FACS on NCI-H1650 cells
Protocol: Binding of the test antibodies to P-cadherin expressed on cells was determined by flow cytometry analysis. […] 1×10⁵ cells/well (100 μL) were added to each well of a 96-well U-plate (Corning, #3799) and centrifuged at 1500 rpm (Eppendorf, #5810R) for 5 minutes before removing the supernatant. Antibodies serially diluted in 1% BSA/1×PBS (Ca+/Mg+) were added at 100 μL/well to the pelleted cells and incubated at 4° C. for 1 hour. Anon-related hIgG1 antibody was used as an isotype control. Cells were washed two times with 180 μL/well of 1% BSA/1×PBS (Ca+/Mg+) by centrifugation at 1500 rpm for 5 minutes at 4° C. Pelleted cells were resuspended in 100 μL/well Alexa647 conjugated Goat anti-human IgG Fc (Jackson, #109-605-098) 1:500 diluted in 1% BSA/1×PBS (Ca+/Mg+) for 30 minutes at 4° C. in the dark. Cells were then washed two times as described above. After the final wash, cells were resuspended in 100 μL 1% BSA/1×PBS (Ca+/Mg+) and fluorescence values were measured with a FACS Canto II cytometer (BD Biosciences). The amount of cell surface bound anti-P-cadherin antibody was assessed by measuring the mean fluorescence (MFI). The FACS raw data were analyzed by FlowJo software, wells containing no antibody or secondary antibody only were used to establish background fluorescence. Binding EC50 values were obtained by the four-parameter non-linear regression analysis using GraphPad Prism6 software.

[3] = molecular target: T2, W319-hPro1.D123.ECD.hFc (WT) (human, UniProt P22223 108-461); assay: direct ELISA on coated antigen
T2 construct: range 108-461; also called Human P-cadherin ECD domain 1&2&3; domain 1-3; not shown: human Fc by the code hFc
T2 sequence (P22223 108-461): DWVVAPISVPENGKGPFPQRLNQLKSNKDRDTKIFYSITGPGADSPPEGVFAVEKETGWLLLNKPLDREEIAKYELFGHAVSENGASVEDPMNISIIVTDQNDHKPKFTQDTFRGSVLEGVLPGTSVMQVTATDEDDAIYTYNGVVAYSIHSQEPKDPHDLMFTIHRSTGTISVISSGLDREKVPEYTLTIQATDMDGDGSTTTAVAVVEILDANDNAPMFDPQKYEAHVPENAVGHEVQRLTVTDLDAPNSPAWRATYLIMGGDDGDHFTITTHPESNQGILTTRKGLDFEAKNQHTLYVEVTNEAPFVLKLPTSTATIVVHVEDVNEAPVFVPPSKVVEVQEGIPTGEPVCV
Protocol: (§1) The binding of the antibodies to W319-hPro1.D1.ECD.hFc, W319-hPro1.D12.ECD.hFc (WT), W319-hPro1.D123.ECD.hFc (WT), W319-hPro1.D1234.ECD.hFc (WT) (2.5) and W319-hPro1.ECD.hFc (WT)-P3 were tested by a direct protein binding ELISA. 96-well high protein binding ELISA plates (Nunc MaxiSorp, ThermoFisher, Cat #: 442404) were coated overnight at 4° C. with 1 μg/mL antigens in Carbonate-bicarbonate buffer (20 mM Na2CO3, 180 mM NaHCO3, pH=9.2). All wells were washed three time with 300 μL per well of PBS/0.5‰ Tween-20 (v/v) and all the following wash steps in the assay were performed the same. The wells were then blocked for one hour with 2% BSA (Bovogen, Cat #: BSAS)/1×PBS (Ca+/Mg+) (Gibco, #14040-117) and washed three times. For the primary antibody binding, the testing antibodies including the BMKs and our antibodies serially diluted in 2% BSA/1×PBS (Ca+/Mg+) were added to the relevant wells and incubated at room temperature for two hours. Plates were washed three times prior to the addition of 100 μL of secondary antibody Goat anti-Human-IgG-F(ab′)2-HRP (Jackson, Cat #: 109-035-097) 5000-fold diluted in 2% BSA/1×PBS (Ca+/Mg+). Plates were incubated at room temperature for one hour, followed by six washes as describe above.
(§2) For the binding detection, 100 μL Tetramethylbenzidine (TMB) Substrate solution (Invitrogen, Cat #: 002023) was added to all wells for 10 minutes before stopping the reaction with 100 μL 2M HCl. The extent of the testing Abs binding to W319-hPro1.D1.ECD.hFc, W319-hPro1.D12.ECD.hFc (WT), W319-hPro1.D123.ECD.hFc (WT), W319-hPro1.D1234.ECD.hFc (WT) and W319-hPro1.ECD.hFc (WT)-P3 were determined by measuring the OD450 absorbance using the SpectraMax® M5e microplate reader. Wherever appropriate, binding EC50 values were obtained by the four-parameter non-linear regression analysis using GraphPad Prism 5 software.
(§3) Its binding epitope is different from BMKs.

W319-hPro1.D1.ECD.hFc = molecular target: T3, W319-hPro1.D1.ECD.hFc (human, UniProt P22223 108-236); assay: direct ELISA on coated antigen
T3 construct: range 108-236; also called Human P-cadherin ECD domain 1; not shown: human Fc by the code hFc
T3 sequence (P22223 108-236): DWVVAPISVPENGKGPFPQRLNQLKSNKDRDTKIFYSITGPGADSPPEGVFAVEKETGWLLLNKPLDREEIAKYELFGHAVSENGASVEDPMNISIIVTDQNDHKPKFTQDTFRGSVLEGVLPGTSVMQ
Protocol: as §1, §2, §3

[4] = molecular target: T4, W319-hPro1.D12.ECD.hFc (WT) (human, UniProt P22223 108-348); assay: direct ELISA on coated antigen
T4 construct: range 108-348; also called Human P-cadherin ECD domain 1&2; domain 1-2; not shown: human Fc by the code hFc
T4 sequence (P22223 108-348): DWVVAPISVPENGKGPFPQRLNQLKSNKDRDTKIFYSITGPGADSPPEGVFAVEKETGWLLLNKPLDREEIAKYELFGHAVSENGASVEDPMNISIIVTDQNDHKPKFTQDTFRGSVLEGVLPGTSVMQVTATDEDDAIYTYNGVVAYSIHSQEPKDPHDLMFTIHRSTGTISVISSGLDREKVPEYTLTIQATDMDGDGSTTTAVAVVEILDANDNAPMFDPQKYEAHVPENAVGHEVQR
Protocol: as §1, §2, §3

[5] = molecular target: T5, W319-hPro1.D1234.ECD.hFc (WT) (human, UniProt P22223 108-550); assay: direct ELISA on coated antigen
T5 construct: range 108-550; also called Human P-cadherin ECD domain 1&2&3&4; domain 1-4; not shown: human Fc by the code hFc
T5 sequence (P22223 108-550): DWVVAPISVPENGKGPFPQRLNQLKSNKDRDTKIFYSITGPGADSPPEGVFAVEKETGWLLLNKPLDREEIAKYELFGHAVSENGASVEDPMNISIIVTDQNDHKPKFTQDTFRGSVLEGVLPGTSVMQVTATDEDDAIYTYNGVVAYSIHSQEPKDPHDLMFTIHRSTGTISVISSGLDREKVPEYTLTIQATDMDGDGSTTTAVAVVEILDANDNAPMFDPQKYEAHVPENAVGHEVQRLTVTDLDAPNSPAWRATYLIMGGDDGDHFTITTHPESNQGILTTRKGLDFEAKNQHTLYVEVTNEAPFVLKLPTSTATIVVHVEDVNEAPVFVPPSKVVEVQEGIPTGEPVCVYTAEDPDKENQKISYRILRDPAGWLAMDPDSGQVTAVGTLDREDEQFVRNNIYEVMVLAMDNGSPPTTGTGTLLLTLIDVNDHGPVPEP
Protocol: as §1, §2, §3

[6] = molecular target: T6, W319-hPro1.ECD.hFc (WT)-P3 (human, UniProt P22223 108-654); assay: direct ELISA on coated antigen
T6 construct: range 108-654; also called Human P-cadherin ECD; not shown: human Fc by the code hFc
T6 sequence (P22223 108-654): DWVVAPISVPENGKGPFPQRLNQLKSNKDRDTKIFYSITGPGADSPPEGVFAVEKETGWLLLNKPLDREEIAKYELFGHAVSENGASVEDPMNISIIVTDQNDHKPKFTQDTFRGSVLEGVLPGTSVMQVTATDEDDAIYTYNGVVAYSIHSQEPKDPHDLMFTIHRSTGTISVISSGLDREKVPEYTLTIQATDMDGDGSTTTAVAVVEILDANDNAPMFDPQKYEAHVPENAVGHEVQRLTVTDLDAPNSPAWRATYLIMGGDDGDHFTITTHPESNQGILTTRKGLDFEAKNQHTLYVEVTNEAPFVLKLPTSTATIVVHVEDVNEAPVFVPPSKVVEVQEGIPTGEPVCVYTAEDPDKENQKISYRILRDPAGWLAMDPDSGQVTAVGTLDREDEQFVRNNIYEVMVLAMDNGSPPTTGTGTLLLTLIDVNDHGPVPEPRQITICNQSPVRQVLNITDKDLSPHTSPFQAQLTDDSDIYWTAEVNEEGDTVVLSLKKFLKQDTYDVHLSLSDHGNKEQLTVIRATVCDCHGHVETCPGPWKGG
Protocol: as §1, §2, §3

T1 sequence (P22223 108-829): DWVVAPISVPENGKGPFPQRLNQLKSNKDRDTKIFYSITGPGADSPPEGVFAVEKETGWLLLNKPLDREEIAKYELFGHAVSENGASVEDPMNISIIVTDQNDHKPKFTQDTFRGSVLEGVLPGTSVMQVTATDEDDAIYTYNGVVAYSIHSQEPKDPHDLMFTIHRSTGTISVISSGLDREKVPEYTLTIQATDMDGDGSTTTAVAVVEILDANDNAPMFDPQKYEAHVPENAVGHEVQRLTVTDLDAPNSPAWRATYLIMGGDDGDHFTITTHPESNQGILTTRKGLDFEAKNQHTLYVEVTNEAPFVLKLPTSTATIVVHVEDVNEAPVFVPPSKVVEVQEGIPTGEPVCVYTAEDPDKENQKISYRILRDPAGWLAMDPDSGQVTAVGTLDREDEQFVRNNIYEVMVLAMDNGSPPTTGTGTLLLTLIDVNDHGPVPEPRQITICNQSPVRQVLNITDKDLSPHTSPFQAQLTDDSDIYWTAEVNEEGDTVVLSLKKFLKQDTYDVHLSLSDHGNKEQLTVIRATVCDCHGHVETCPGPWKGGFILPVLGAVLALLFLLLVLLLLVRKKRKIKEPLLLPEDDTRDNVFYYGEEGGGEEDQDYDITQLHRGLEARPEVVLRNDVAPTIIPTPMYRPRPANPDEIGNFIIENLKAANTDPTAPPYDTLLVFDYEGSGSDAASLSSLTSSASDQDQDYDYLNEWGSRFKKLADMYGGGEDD

EC50 [1]: 0.19 nM
EC50 [2]: 0.22 nM
EC50 [3]: 0.08 nM
Max OD450 [3]: 2.83
Max OD450 (W319-hPro1.D1.ECD.hFc): 0.07
Max OD450 [4]: 0.08
EC50 [5]: 0.087 nM
Max OD450 [5]: 2.88
EC50 [6]: 0.14 nM
Max OD450 [6]: 2.88
B1: W3195-1.53.1-p1-uIgG1L (antibody)
heavy: not shown
light: SYELTQPPSVSVSPGQTAQITCSGDKLGDKFASWYQQKSGQSPVVVIYQDNKRPSGFPERFSGSNSGNTATLTISGTQAMDEADYYCQAWDSSIVVFGGGTKLTVLGQPKAAPSVTLFPPSSEELQANKATLVCLISDFYPGAVTVAWKADSSPVKAGVETTTPSKQSNNKYAASSYLSLTPEQWKSHRSYSCQVTHEGSTVEKTVAPTECS
notes: also called W3195-p1 antibody
